In paper PMC12768131, “Common cold embecovirus imprinting primes broadly neutralizing antibody responses to SARS-CoV-2 S2” (The Journal of experimental medicine, 2025) one finds Kd data, which are given here for 1 molecule.

For the assay, the target named is T1, full-length SARS-CoV-2 spiketrimer (HP-GSAS-Mut7) (SARS-CoV-2, ancestral (Wuhan-Hu-1), stabilised).
T1 construct: also called full-length spike trimer; full-length spike
Kind of assay: BLI. The conditions noted are these: both partners purified.

Usually Kd stands for the free concentration of one partner at which half of the binding sites on the other are occupied at equilibrium, for simple one-to-one binding.

B1: R125–61 Fab (Fab, V domains shown)
VH: QVQLQESGPGLVKPSETLSLICTVSGGSITRDFWSWVRQPPGKGLEWIGYGYYRGSTNYNPSLESRVTISVDTSKNQFSLKLTSVTAADTAVYYCARETAHNWIDTWGQGILVTVSS
VL: DIVMTQSPESLALSLGERATINCKSSQTVSFTSNNKNYLAWYQQKPRQPPKLLFYWASTRHSGVPDRFSGSGSGTDFTLTINSLQAEDVAVYFCHQYFSTPWTFGQGTKVEI
Take B1: the Kd is 4.7 nM. In other words, the single-digit nanomolar range.
